Experiments:
[1] = tested on: Rho-dependent termination (trac and trpt′ lacZ fusions); assay type: cell-based, Escherichia coli; conditions: qRT-PCR, 2−ΔΔCt relative to empty vector; 100 μM IPTG (20 μM for Psu); at least three biological replicates
[2] = tested on: Rho-dependent termination (trpt′ and trac terminators, lacZ reporter); assay type: cell-based, Escherichia coli; conditions: trpt′ and trac, LB-X-gal, induction by 50 μM IPTG
[3] = tested on: pathogenic Rho proteins; conditions: ref [13]; cited from earlier work
[4] = tested on: Mycobacterium bovis BCG; assay type: cell-based
[5] = tested on: Rho proteins from pathogenic bacteria; assay type: biochemical; conditions: 35 μM peptide 33, 50 nM Rho, E. coli RNAP stalled EC, trpt′
[6] = tested on: Rho-dependent termination (galEP3 reporter); assay: in vivo Rho-dependent termination, galEP3 reporter, MacConkey-galactose plates; assay type: cell-based, Escherichia coli; conditions: MC4100 galEP3, MacConkey-galactose plates, overexpression
[7] = biological target: T1, P167L Rho (Escherichia coli, UniProt P0AG30, P167L); conditions: ref [11]; cited from earlier work
[8] = biological target: WT Rho (Escherichia coli, UniProt P0AG30); conditions: earlier work; ref [11]; cited from earlier work
[9] = tested on: Rho point mutants, R144E, R146E, and, E148R; conditions: cited from earlier work
[10] = tested on: E. coli Rho; assay: Rho-mediated RNA release from stalled (roadblocked) elongation complex; assay type: biochemical, Escherichia coli; conditions: Fig. S4B
[11] = tested on: E. coli Rho; conditions: compared with peptide 33; ref [9]; cited from earlier work
Excerpt: Next, we assayed the peptide-mediated inhibition of the in vitro transcription termination functions of the Rho. We used a linear DNA template where a trpt′ terminator is fused downstream of a strong T7A1 promoter. On this template, efficient transcription termination over a terminator zone is usually observed in the presence of Rho (Fig. 3D; ([16])). The amount of run-off transcripts at the end of this template gives the measure of Rho inhibition by the peptides. We observed that the amount of ...

[12] = tested on: MG1655 gene expression; assay type: cell-based, Escherichia coli; conditions: qRT-PCR, relative to empty vector
[13] = tested on: Mycobacterium smegmatis mc^2155; assay type: cell-based
[14] = biological target: T1, P167L Rho; assay type: binding; conditions: Rho:ligand in μg: 1:6 (peptide 16), 1:4 (peptide 33), 1:3 (Psu); 1 mM ATP, pH 8.0, 37 °C, 20 min; SD of two or three measurements
[15] = tested on: E. coli Rho; conditions: cited from earlier work

Sequence of WT Rho (P0AG30 whole entry): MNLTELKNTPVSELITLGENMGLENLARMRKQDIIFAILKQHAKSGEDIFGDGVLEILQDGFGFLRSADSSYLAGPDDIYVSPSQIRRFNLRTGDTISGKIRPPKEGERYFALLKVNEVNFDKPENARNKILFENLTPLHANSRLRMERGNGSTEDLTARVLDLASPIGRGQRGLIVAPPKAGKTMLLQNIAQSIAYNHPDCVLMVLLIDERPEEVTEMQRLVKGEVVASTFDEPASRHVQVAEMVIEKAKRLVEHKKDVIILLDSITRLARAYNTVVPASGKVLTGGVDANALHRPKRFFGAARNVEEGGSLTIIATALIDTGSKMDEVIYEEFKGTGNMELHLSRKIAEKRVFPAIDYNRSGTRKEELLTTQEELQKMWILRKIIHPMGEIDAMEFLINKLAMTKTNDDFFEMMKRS

B1: Psu: bacteriophage P4 capsid protein, natural Rho antagonist, ∼42-kDa dimer (protein)
chain: MESTALQQAFDTCQNNKAAWLQRKNELAAAEQEYLRLLSGEGRNVSRLDELRNIIEVRKWQVNQAAGRYIRSHEAVQHISIRDRLNDFMQQHGTALAAALAPELMGYSELTAIARNCAIQRATDALREALLSWLAKGEKINYSAQDSDILTTIGFRPDVASVDDSREKFTPAQNMIFSRKSAQLASRQSV
enhancement of expression of Plac-trac-lacZ fusion [1]: 28 fold
colour of colonies, lacZ reporter (in words) [2]: deep blue colonies
inhibition of ATP hydrolysis of Salmonella and Vibrio Rho with poly(C) RNA (in words) [3]: too fast to be inhibited by Psu
growth phenotype upon streaking (in words) [4]: very sick phenotype
inhibition of RNA release by pathogenic Rho proteins (in words) [5]: could inhibit the termination process by all the different Rho proteins
colour of colonies, galEP3 reporter (in words) [6]: appearance of red colonies
in vitro stable complex with P167L Rho (in words) [7]: stable complex between Psu and Rho could form if a mutant Rho, P167L, was used
in vitro stable complex with WT Rho (in words) [8]: failed to obtain a stable in vitro Rho–Psu complex with the WT Rho
binding of Rho mutants R144E, R146E, E148R (in words) [9]: did not bind to Psu
inhibition of Rho-induced RNA release from stalled EC (in words) ([10]; Fig. 3E): significantly inhibited
Frac. of RNA released (%) ([10]; Psu 5.0, Rho 50 nM): 12 ± 0.4%
in vitro Rho inhibition in termination assay (in words) [11]: A similar level of in vitro Rho inhibition
upregulation of tested genes (in words) [12]: highest level of upregulations of the tested genes
growth phenotype upon streaking (in words) [13]: very sick phenotype
transformants obtained (in words) [13]: fewer colonies than those obtained from the transformation with the empty vector
Fraction of Rho associated (%) [14]: 49 ± 5%
rate of RNA-dependent ATP hydrolysis of Rho (in words) [15]: reduced the rate of RNA-dependent ATP hydrolysis
